Measurements from patent US20250223342A1 (ARGENX, published 2025).

What was measured:
human serum albumin [1] = target: T1, human serum albumin (human, UniProt P02768 25-609); experiment: SPR (Biacore 3000), HSA on chip, Fc-ABDEG fusion, pH 7.4
T1 construct: also called HSA

human serum albumin [2] = target: T1, human serum albumin; experiment: SPR (Biacore 3000), HSA on chip, Fc-ABDEG fusion, pH 5.5
[3] = target: T2, cynomolgus monkey serum albumin (cynomolgus monkey, UniProt A2V9Z4 25-608); experiment: SPR (Biacore 3000), cyno albumin on chip, Fc-ABDEG fusion, ratio of R0
T2 construct: also called cyno albumin; CSA

[4] = target: T2, cynomolgus monkey serum albumin; experiment: SPR (Biacore 3000), cyno albumin on chip, Fc-ABDEG fusion, pH 5.5
[5] = target: T2, cynomolgus monkey serum albumin; experiment: SPR (Biacore 3000), cyno albumin on chip, Fc-ABDEG fusion, pH 7.4
human serum albumin [6] = target: T1, human serum albumin; experiment: SPR (Biacore 3000), HSA on chip, Fc-ABDEG fusion, ratio of R0
human serum albumin [7] = target: T1, human serum albumin; experiment: SPR (Biacore), VHH clone, pH 5.5
human serum albumin [8] = target: T1, human serum albumin; experiment: SPR (Biacore), off-rate pH 7.4 over pH 5.5
human serum albumin [9] = target: T1, human serum albumin; experiment: SPR (Biacore), VHH clone, pH 7.4
[10] = target: T3, isolated DII of serum albumin (UniProt P02768 211-403, limits assumed); experiment: DII binder column of the clone screening
T3 construct: domain: DII

[11] = target: T2, cynomolgus monkey serum albumin; experiment: SPR (Biacore 3000), albumin on chip, Fc-ABDEG fusion
[12] = target: T2, cynomolgus monkey serum albumin; experiment: species reactivity, screening by ELISA and Biacore

B1: 11C03 CDR1-V2 fused at the C-terminus of Fc-ABDEG (Fc fusion, not shown: a dimerising Fc or GST; small tags and cut ends)
chain: QLQVVESGGGLVQAGGSLRLSCAASERTFVAAPMGWFRQAPEKEREFVAGISWFAGATTDYADSVEGRFTISRDNAKNTAYLQMNNLKPEDTAVYYCAISHQLPGGRPGRDMDSYSYWGHGTQVTVSS
R0 pH 7.4 (human serum albumin [1]): 5.82 RU
R0 pH 5.5 (human serum albumin [2]): 108 RU
R0 5.5/7.4 [3]: 17.9
R0 pH 5.5 [4]: 37.8 RU
R0 pH 7.4 [5]: 2.11 RU
R0 5.5/7.4 (human serum albumin [6]): 19

B2: 11C03 CDR1-V3 fused at the C-terminus of Fc-ABDEG (Fc fusion, not shown: a dimerising Fc or GST; small tags and cut ends)
chain: QLQVVESGGGLVQAGGSLRLSCAASERTFVAYAMGWFRQAPEKEREFVAGISWFAGATTDYADSVEGRFTISRDNAKNTAYLQMNNLKPEDTAVYYCAISHQLPGGRPGRDMDSYSYWGHGTQVTVSS
R0 pH 7.4 (human serum albumin [1]): 5.1 RU
R0 pH 5.5 (human serum albumin [2]): 109 RU
R0 5.5/7.4 [3]: 19.8
R0 pH 5.5 [4]: 103 RU
R0 pH 7.4 [5]: 5.2 RU
R0 5.5/7.4 (human serum albumin [6]): 21

B3: 11C03 CDR2-V2 fused at the C-terminus of Fc-ABDEG (Fc fusion, not shown: a dimerising Fc or GST; small tags and cut ends)
chain: QLQVVESGGGLVQAGGSLRLSCAASERTFVAYPMGWFRQAPEKEREFVAGASWFAGATTDYADSVEGRFTISRDNAKNTAYLQMNNLKPEDTAVYYCAISHQLPGGRPGRDMDSYSYWGHGTQVTVSS
R0 pH 7.4 (human serum albumin [1]): 1.22 RU
R0 pH 5.5 (human serum albumin [2]): 15.1 RU
R0 5.5/7.4 [3]: 4.35
R0 pH 5.5 [4]: 5.22 RU
R0 pH 7.4 [5]: 1.2 RU
R0 5.5/7.4 (human serum albumin [6]): 12

B4: 11C03 CDR2-V3 fused at the C-terminus of Fc-ABDEG (Fc fusion, not shown: a dimerising Fc or GST; small tags and cut ends)
chain: QLQVVESGGGLVQAGGSLRLSCAASERTFVAYPMGWFRQAPEKEREFVAGIAWFAGATTDYADSVEGRFTISRDNAKNTAYLQMNNLKPEDTAVYYCAISHQLPGGRPGRDMDSYSYWGHGTQVTVSS
R0 pH 7.4 (human serum albumin [1]): 2.4 RU
R0 pH 5.5 (human serum albumin [2]): 68.5 RU
R0 5.5/7.4 [3]: 20.8
R0 pH 5.5 [4]: 54.2 RU
R0 pH 7.4 [5]: 2.6 RU
R0 5.5/7.4 (human serum albumin [6]): 28

B5: 11C03 CDR2-V4 fused at the C-terminus of Fc-ABDEG (Fc fusion, not shown: a dimerising Fc or GST; small tags and cut ends)
chain: QLQVVESGGGLVQAGGSLRLSCAASERTFVAYPMGWFRQAPEKEREFVAGISAFAGATTDYADSVEGRFTISRDNAKNTAYLQMNNLKPEDTAVYYCAISHQLPGGRPGRDMDSYSYWGHGTQVTVSS
R0 pH 7.4 (human serum albumin [1]): 0.826 RU
R0 pH 5.5 (human serum albumin [2]): 12.3 RU
R0 pH 5.5 [4]: 0 RU
R0 pH 7.4 [5]: 2.77 RU
R0 5.5/7.4 (human serum albumin [6]): 15

B6: 11C03 CDR2-V5 fused at the C-terminus of Fc-ABDEG (Fc fusion, not shown: a dimerising Fc or GST; small tags and cut ends)
chain: QLQVVESGGGLVQAGGSLRLSCAASERTFVAYPMGWFRQAPEKEREFVAGISWAAGATTDYADSVEGRFTISRDNAKNTAYLQMNNLKPEDTAVYYCAISHQLPGGRPGRDMDSYSYWGHGTQVTVSS
R0 pH 7.4 (human serum albumin [1]): 1.06 RU
R0 pH 5.5 (human serum albumin [2]): 12.3 RU
R0 pH 5.5 [4]: 0 RU
R0 pH 7.4 [5]: 1.1 RU
R0 5.5/7.4 (human serum albumin [6]): 12

B7: 11C03 CDR2-V7 fused at the C-terminus of Fc-ABDEG (Fc fusion, not shown: a dimerising Fc or GST; small tags and cut ends)
chain: QLQVVESGGGLVQAGGSLRLSCAASERTFVAYPMGWFRQAPEKEREFVAGISWFAAATTDYADSVEGRFTISRDNAKNTAYLQMNNLKPEDTAVYYCAISHQLPGGRPGRDMDSYSYWGHGTQVTVSS
R0 pH 7.4 (human serum albumin [1]): 1.12 RU
R0 pH 5.5 (human serum albumin [2]): 4.57 RU
R0 pH 5.5 [4]: 0 RU
R0 pH 7.4 [5]: 1.09 RU
R0 5.5/7.4 (human serum albumin [6]): 4

B8: 11C03 CDR2-V10 fused at the C-terminus of Fc-ABDEG (Fc fusion, not shown: a dimerising Fc or GST; small tags and cut ends)
chain: QLQVVESGGGLVQAGGSLRLSCAASERTFVAYPMGWFRQAPEKEREFVAGISWFAGATADYADSVEGRFTISRDNAKNTAYLQMNNLKPEDTAVYYCAISHQLPGGRPGRDMDSYSYWGHGTQVTVSS
R0 pH 7.4 (human serum albumin [1]): 8.6 RU
R0 pH 5.5 (human serum albumin [2]): 136 RU
R0 5.5/7.4 [3]: 18.6
R0 pH 5.5 [4]: 105 RU
R0 pH 7.4 [5]: 5.65 RU
R0 5.5/7.4 (human serum albumin [6]): 16

B9: 11C03 CDR2-V12 fused at the C-terminus of Fc-ABDEG (Fc fusion, not shown: a dimerising Fc or GST; small tags and cut ends)
chain: QLQVVESGGGLVQAGGSLRLSCAASERTFVAYPMGWFRQAPEKEREFVAGISWFAGATTDAADSVEGRFTISRDNAKNTAYLQMNNLKPEDTAVYYCAISHQLPGGRPGRDMDSYSYWGHGTQVTVSS
R0 pH 7.4 (human serum albumin [1]): 1.5 RU
R0 pH 5.5 (human serum albumin [2]): 38.7 RU
R0 5.5/7.4 [3]: 19.3
R0 pH 5.5 [4]: 26 RU
R0 pH 7.4 [5]: 1.35 RU
R0 5.5/7.4 (human serum albumin [6]): 26

B10: 2C10 (VHH)
VHH: QLQLVESGGGLVQAGGSLRLSCAASGRTFSSYAMGWFRQAPGKEREFVAVISWSGGSTYYADSVKGRFTISGDNAKNTVYLQMNSLKPEDTAVYYCATEGPKWEPYNGIYSPADFGSWGQGTQVTVSS
Kd (human serum albumin [7]): 49.3 nM
koff (human serum albumin [7]): 0.0045 s⁻¹
Ratio Kd (human serum albumin [8]): 1.3
koff (human serum albumin [9]): 0.0056 s⁻¹
binding result [10]: no binding

B11: 2H11-v3 fused at the C-terminus of Fc-ABDEG (two-armed Fc-ABDEG-20GS-Cterm fusion) (Fc fusion, not shown: a dimerising Fc or GST; large carriers; small tags and cut ends)
VHH: ELQVVESGGGLVQAGGSLRLSCAASGRTFRSNTMGWFRQAPGKEREFVAAITWSGGTTYYADSVKGRFAISGDNAKNTVYLQMNSLKPEDTAVYYCAAEGAKWEPWNGIYHPADFGSWGQGTQVTVSS
binding result [11]: no binding

B12: 2H11-v8 fused at the C-terminus of Fc-ABDEG (two-armed Fc-ABDEG-20GS-Cterm fusion) (Fc fusion, not shown: a dimerising Fc or GST; small tags and cut ends)
VHH: ELQVVESGGGLVQAGGSLRLSCAASGRTFRSNTMGWFRQAPGKEREFVAAITWSGGTTYYADSVKGRFAISGDNAKNTVYLQMNSLKPEDTAVYYCAAEGPKWEPANGIYHPADFGSWGQGTQVTVSS
binding result [11]: no binding

B13: 2H11-v9 fused at the C-terminus of Fc-ABDEG (two-armed Fc-ABDEG-20GS-Cterm fusion) (Fc fusion, not shown: a dimerising Fc or GST; large carriers; small tags and cut ends)
VHH: ELQVVESGGGLVQAGGSLRLSCAASGRTFRSNTMGWFRQAPGKEREFVAAITWSGGTTYYADSVKGRFAISGDNAKNTVYLQMNSLKPEDTAVYYCAAEGPKWEPWAGIYHPADFGSWGQGTQVTVSS
binding result [11]: no binding

B14: 2H11-v12 fused at the C-terminus of Fc-ABDEG (two-armed Fc-ABDEG-20GS-Cterm fusion) (Fc fusion, not shown: a dimerising Fc or GST; large carriers; small tags and cut ends)
VHH: ELQVVESGGGLVQAGGSLRLSCAASGRTFRSNTMGWFRQAPGKEREFVAAITWSGGTTYYADSVKGRFAISGDNAKNTVYLQMNSLKPEDTAVYYCAAEGPKWEPWNGIAHPADFGSWGQGTQVTVSS
binding result [11]: no binding

B15: 2H11-v15 fused at the C-terminus of Fc-ABDEG (two-armed Fc-ABDEG-20GS-Cterm fusion) (Fc fusion, not shown: a dimerising Fc or GST; large carriers; small tags and cut ends)
VHH: ELQVVESGGGLVQAGGSLRLSCAASGRTFRSNTMGWFRQAPGKEREFVAAITWSGGTTYYADSVKGRFAISGDNAKNTVYLQMNSLKPEDTAVYYCAAEGPKWEPWNGIYHPAAFGSWGQGTQVTVSS
binding result [11]: no binding

B16: 2H11-v16 fused at the C-terminus of Fc-ABDEG (two-armed Fc-ABDEG-20GS-Cterm fusion) (Fc fusion, not shown: a dimerising Fc or GST; large carriers; small tags and cut ends)
VHH: ELQVVESGGGLVQAGGSLRLSCAASGRTFRSNTMGWFRQAPGKEREFVAAITWSGGTTYYADSVKGRFAISGDNAKNTVYLQMNSLKPEDTAVYYCAAEGPKWEPWNGIYHPADAGSWGQGTQVTVSS
binding result [11]: no binding

B17: 2H11 (VHH)
VHH: ELQVVESGGGLVQAGGSLRLSCAASGRTFRSNTMGWFRQAPGKEREFVAAITWSGGTTYYADSVKGRFAISGDNAKNTVYLQMNSLKPEDTAVYYCAAEGPKWEPWNGIYHPADFGSWGQGTQVTVSS
notes: also called 2H11 parental (VHH)
Kd (human serum albumin [7]): 6.84 nM
koff (human serum albumin [7]): 0.00063 s⁻¹
Ratio Kd (human serum albumin [8]): 81.9
koff (human serum albumin [9]): 0.052 s⁻¹

B18: 2B03 (VHH)
VHH: QLQLVESGGGLVQAGGSLRLSCAASGRAISSYVMAWFRQAPGKEREFVTSINWSGGSTYYAHSVKGRFTISRDNAKNTVYLQMNTLKPEDTAVYYCAADLYGLGYEVMSYDYWGQGTQVTVSS
Kd (human serum albumin [7]): 16.6 nM
koff (human serum albumin [7]): 0.0029 s⁻¹
Ratio Kd (human serum albumin [8]): 8.7
koff (human serum albumin [9]): 0.025 s⁻¹
binding result [10]: no binding
binding result [12]: binds

B19: 2A10 (VHH)
VHH: EVQLVESGGGLVQAGGSLRLSCAASGRTFSSYAMGWFRQAPGKEREFVATINWSGGSTYYADSVKGRFTISRDNAKNTVYLQMNSLKPEDTAVYYCAADLYGPGFVLSMEYDYWGQGTQVTVSS
Kd (human serum albumin [7]): 96.9 nM
koff (human serum albumin [7]): 0.0034 s⁻¹
Ratio Kd (human serum albumin [8]): 3.3
koff (human serum albumin [9]): 0.011 s⁻¹
binding result [10]: no binding
binding result [12]: binds

B20: 1E04 (VHH)
VHH: QLQLVESGGGLVQTGGSLRLSCAASGRTFSNYNAGWFRQVPGKEPEFVAAINWSGGTTYYADSVKGRFTISRDNAKNTVYLQMNSLKPEDTAVYYCAADPDWSILNPREYDYWGQGTRVTVSS
Kd (human serum albumin [7]): 55.2 nM
koff (human serum albumin [7]): 0.0026 s⁻¹
Ratio Kd (human serum albumin [8]): 2.1
koff (human serum albumin [9]): 0.0054 s⁻¹
binding result [10]: no binding
binding result [12]: binds

B21: 4G12 (VHH)
VHH: QLQLVESGGGLVQAGGSLRLSCVASGRSFSTYGMGWFRQAPGAEREFAAAINWKGDRYYADSVKGRFTISRDNAKNTVFLEMNSLKPEDTGVYYCAADSDGSAFSRRLEYDYWGQGTQVTVSS
Kd (human serum albumin [7]): 12.4 nM
koff (human serum albumin [7]): 0.0019 s⁻¹
Ratio Kd (human serum albumin [8]): 1.8
koff (human serum albumin [9]): 0.0033 s⁻¹
binding result [10]: no binding
binding result [12]: binds
